Assay results published in the supplement of paper PMC12338614.
± gives the uncertainty stated by the source.

B1: library; numbered along this chain (parent)
chain: MEVVDPQQLGMFTEGELMSVGMDTFIHRIDSTEVIYQPRRKRAKLIGKYLMGDLLGEGSYGKVKEVLDSETLCRRAVKILKKKKLRRIPNGEANVKKEIQLLRRLRHKNVIQLVDVLYNEEKQKMYMVMEYCVCGMQEMLDSVPEKRFPVCQAHGYFCQLIDGLEYLHSQGIVHKDIKPGNLLLTTGGTLKISDLGVAEALHPFAADDTCRTSQGSPAFQPPEIANGLDTFSGFKVDIWSAGVTLYNITTGLYPFEGDNIYKLFENIGKGSYAIPGDCGPPLSDLLKGMLEYEPAKRFSIRQIRQHSWFRKKHPPAEAPVPIPPSPDTKDRWRSMTVVPYLEDLHGADEDEDLFDIEDDIIYTQDFTVPGQVPEEEASHNGQRRGLPKAVCMNGTEAAQLSTKSRAEGRAPNPARKACSASSKIRRLSACKQQ

Variants of: B1
Test: STK11 functional score (HeLa growth suppression), rescaled enrichment; synonymous median = 1, nonsense median = 0 (normalised score)
Conditions: with HeLa; variant type: missense
Procedure: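 Deep mutational scan (TileSeq/POPCode codon randomisation) of full-length codon-optimised STK11 cDNA integrated at a Bxb1 landing pad (AAVS1) in HeLa cells. Restoring functional STK11 suppresses HeLa proliferation. Variant frequencies were measured by NGS before and after about two weeks of growth. The error-corrected enrichment log-ratio was rescaled so that synonymous median = 1 and nonsense median = 0, scores above 1 were compressed, and codon-level and three biological replicate scores were combined; error is the bootstrapped standard error. Scale: synonymous median = 1, nonsense median = 0; below 0.5 = damaging.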

Variant | STK11 functional score
L184S | 0.61 ± 0.13
G188R | 1.19 ± 0.56
P203S | 1.68 ± 0.46
T212S | 0.909 ± 0.12
T212P | 0.926 ± 0.38
E16S | 1.39 ± 0.17
Y49H | 1.11 ± 0.48
Y49C | 1.01 ± 0.28
Y49W | 1.01 ± 0.096
Y49R | 0.545 ± 0.19
Y49S | 1 ± 0.28
L183G | 0.551 ± 0.24
L183T | 1.1 ± 0.28
G91C | 0.164 ± 0.23
G91P | 1.62 ± 0.19
N412P | 1.56 ± 0.35
N412Y | 1.55 ± 0.3
S59W | 0.719 ± 0.1
R384N | 1.54 ± 0.21
H313Y | 0.272 ± 0.7
H313Q | 0.889 ± 0.49
G233S | 1.44 ± 0.3
P6G | 0.386 ± 0.15
L427N | 1.63 ± 0.25

Variant | STK11 functional score
I29N | 1.49 ± 0.75
I29V | 1.68 ± 0.14
I303F | 0.372 ± 0.088
K97A | 1.47 ± 0.27
K97Q | 0.688 ± 0.72
N119Y | 1.12 ± 0.39
V110S | 0.535 ± 0.12
E407W | 0.194 ± 0.092
S19I | 1.34 ± 0.41
F234A | 1.35 ± 0.39
F234I | 1.67 ± 0.4
F234Y | 0.805 ± 0.64
D53W | 0.204 ± 0.082
D53P | 1.52 ± 0.36
M129D | 1.37 ± 0.36
M392D | 1.19 ± 0.45
M392W | 0.68 ± 0.21
I300M | 0.944 ± 0.21
I300F | 1.21 ± 0.35
G408Y | 1.49 ± 0.16
L140T | 0.232 ± 0.25
L140Y | -0.0286 ± 0.081
L140R | 0.437 ± 0.11
R40S | 0.887 ± 0.15

Variant | STK11 functional score
A200H | 1.49 ± 0.32
K84L | 1.64 ± 0.17
D358I | 1.15 ± 0.46
Q214N | 1.27 ± 0.31
M335P | 1.5 ± 0.2
A429I | 1.63 ± 0.27
A429S | 1.29 ± 0.2
P280F | 1 ± 0.18
Q100H | 1.28 ± 0.4
Q100W | 0.696 ± 0.17
Q371R | 1.55 ± 0.15
E121W | 0.251 ± 0.073
E121T | 1.13 ± 0.36
E120T | 1.43 ± 0.23
E120G | 1.26 ± 0.23
P369F | 1.26 ± 0.39
P369W | 1.49 ± 0.22
R147V | 0.547 ± 0.098
R147W | 0.777 ± 0.16
L85E | 1.7 ± 0.4
L72D | 1.51 ± 0.45
K312E | 0.874 ± 0.5
A410M | 0.531 ± 0.42
D330M | 1.58 ± 0.17

Variant | STK11 functional score
G276I | 0.493 ± 0.26
D343L | 0.93 ± 0.25
G52V | 1.1 ± 0.19
G257V | 1.23 ± 0.17
G171S | 1.41 ± 0.46
Q432D | 1.46 ± 0.21
H202W | 0.389 ± 0.18
R301C | 1.17 ± 0.38
R301S | 1.49 ± 0.35
A153G | 1.13 ± 0.13
R42S | 1.08 ± 0.58
M125G | 1.03 ± 0.16
S193I | 1.17 ± 0.54
I274A | 0.907 ± 0.16
C151H | 0.883 ± 0.11
C151T | 0.991 ± 0.13
A225S | 1.06 ± 0.29
R415S | 1.5 ± 0.27
R415G | 1.53 ± 0.18
V66E | 0.0829 ± 0.36
P315I | 1.21 ± 0.28
P315C | 1.17 ± 0.42
R86D | 1.68 ± 0.19
H168Q | 0.947 ± 0.14

Variant | STK11 functional score
H168W | 0.545 ± 0.6
S271L | 1.39 ± 0.29
D208N | 1.4 ± 0.22
V143Y | 1.52 ± 0.22
L55Q | 1.59 ± 0.43
L55I | 1.39 ± 0.34
L55D | 1.31 ± 0.68
S232V | 0.841 ± 0.24
V133H | 1.47 ± 0.49
T24C | 1.22 ± 0.12
T71L | 0.974 ± 0.12
T71P | 0.376 ± 0.19
E351P | 1.55 ± 0.14
E351H | 0.374 ± 0.082
L164V | 0.774 ± 0.13
R383Y | 1.25 ± 0.54
M18S | 1.31 ± 0.14
L54D | 1.14 ± 0.35
L54V | 0.645 ± 0.14
V320S | 1.48 ± 0.14
V320T | 1.57 ± 0.27
Q152C | 1.26 ± 0.19
L290S | 0.0143 ± 0.1
L290C | 1.06 ± 0.3

Variant | STK11 functional score
C278A | 1.29 ± 0.29
C278K | 1.57 ± 0.25
G346P | 1.61 ± 0.14
V173Q | 1.46 ± 0.14
S213V | 1.02 ± 0.12
A198N | 0.745 ± 0.5
A198R | 0.174 ± 0.098
Q399Y | 1.42 ± 0.2
R405C | 1.3 ± 0.34
D350E | 1.25 ± 0.56
D350S | 0.53 ± 0.49
D365N | 0.613 ± 0.79
D365I | 1.47 ± 0.25
Y166S | 0.964 ± 0.3
F366L | 1.16 ± 0.27
F366Y | 1.24 ± 0.65
D348M | 0.896 ± 0.66
D348S | 1.59 ± 0.16
D5N | 1.24 ± 0.67
E223Q | 0.735 ± 0.22
G163S | 0.402 ± 0.13
G163W | 0.91 ± 0.22
L117K | 1.3 ± 0.4
D355C | 1.31 ± 0.13

Variant | STK11 functional score
A398E | 1.55 ± 0.25
A398I | 1.13 ± 0.64
A398S | 1.16 ± 0.25
N266L | 0.675 ± 0.16
R39S | 1.17 ± 0.36
R39H | 1.13 ± 0.23
K122H | 1.68 ± 0.18
T249M | 1.47 ± 0.2
G270V | 1.26 ± 0.25
G270E | 1.42 ± 0.72
K82E | 1.36 ± 0.75
K83C | 1.39 ± 0.23
K83W | 1.53 ± 0.11
N181D | -0.134 ± 0.054
L101W | -0.0513 ± 0.12
M22A | 1.21 ± 0.85
Y272W | 1.01 ± 0.2
M136L | 0.989 ± 0.083
S325Q | 1.42 ± 0.32
S325M | 0.0951 ± 0.43
S325P | 1.51 ± 0.16
E33D | 1.09 ± 0.39
E33I | 0.611 ± 0.19
